Assays:
recombinant human CD14 = biological target: T1, recombinant human CD14 (human, UniProt P08571 20-345); assay: flow cytometry of receptor-conjugated beads
T1 sequence: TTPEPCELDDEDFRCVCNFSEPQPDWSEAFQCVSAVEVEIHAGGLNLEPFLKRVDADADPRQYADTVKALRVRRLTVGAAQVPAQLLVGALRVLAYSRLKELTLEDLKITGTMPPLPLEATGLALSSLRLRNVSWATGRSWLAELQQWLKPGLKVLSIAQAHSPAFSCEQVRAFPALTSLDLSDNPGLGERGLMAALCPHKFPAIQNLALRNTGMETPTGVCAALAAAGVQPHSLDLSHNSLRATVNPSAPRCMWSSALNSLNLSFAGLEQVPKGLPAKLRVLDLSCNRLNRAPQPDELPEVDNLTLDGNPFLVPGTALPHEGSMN

recombinant human TLR2 = recombinant human TLR2 (human, UniProt O60603); assay: flow cytometry of receptor-conjugated beads
Sequence of recombinant human TLR2 (O60603 21-588): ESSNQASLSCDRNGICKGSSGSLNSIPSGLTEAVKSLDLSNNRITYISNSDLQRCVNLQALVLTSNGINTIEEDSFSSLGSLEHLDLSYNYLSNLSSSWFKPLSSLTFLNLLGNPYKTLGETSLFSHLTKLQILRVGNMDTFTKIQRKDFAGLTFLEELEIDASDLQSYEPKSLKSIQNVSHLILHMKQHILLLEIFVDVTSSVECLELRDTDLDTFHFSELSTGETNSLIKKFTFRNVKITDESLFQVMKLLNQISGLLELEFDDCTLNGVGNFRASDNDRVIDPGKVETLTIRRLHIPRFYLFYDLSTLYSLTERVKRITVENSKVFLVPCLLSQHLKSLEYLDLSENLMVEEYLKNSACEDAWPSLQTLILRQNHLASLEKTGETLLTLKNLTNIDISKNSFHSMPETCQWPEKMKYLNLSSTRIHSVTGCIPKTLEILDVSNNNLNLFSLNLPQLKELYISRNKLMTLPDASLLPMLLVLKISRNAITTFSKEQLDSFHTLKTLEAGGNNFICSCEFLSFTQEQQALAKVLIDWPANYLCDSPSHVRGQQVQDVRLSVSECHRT

## GGLSSVGGGS [KAMP-10]
Recombinant human CD14
  binding result: binds
Recombinant human TLR2
  binding result: binds

## RAIGGGLSSVGGGSSTIK [KAMP-18C]
Recombinant human CD14
  binding result: binds
Recombinant human TLR2
  binding result: binds
